The record followed here is paper PMC8187382, “The archaeal protein SepF is essential for cell division in Haloferax volcanii” (Nature Communications, 2021).

This data set deals with the molecule itself. In words: SEC; 500 µl freshly purified SepF-His on Superdex 200 10/300 GL in Buffer A (1.5 M KCl, 100 mM NaCl, 50 mM HEPES, 1 mM DTT, pH 7.5), 0.5 ml/min; gel filtration standard run under the same conditions; no protein eluted at volumes of higher oligomers. For orientation: In gel filtration, larger molecules generally elute earlier.

B1: SepF-His (H. volcanii SepF expressed in E. coli) (natural protein, Haloferax volcanii, UniProt D4H018 1-118, looked up)
chain: MGIMSKILGGGGSRTTEDYVELDLDDFDTARGDAGLSVHIAEIGGQQDVIAIKDAVYDGNLVIADITRHTTSDSTMEHIIDDLRQVAREVDGDIVQKGDDQIVITPTGISISRQKLNG
notes: SepF of Haloferax volcanii, encoded by hvo_0392, 118 amino acids, 12.6 kDa; sepF amplified from genomic DNA of strain H26 and cloned by FX-cloning; FX-cloning may leave extra residues at the ends; also called purified SepF; Hvo_0392
Regarding B1, the stoichiometry N (in general, the number of molecules, sites or subunits per partner or assembly) was 2.
